Experimental data reported in patent US20170298139A1 (OPI VI IP HOLDCO, published 2017).

B1: SBT-040-WT-ATAC11 (antibody, human IgG1, kappa)
heavy: not shown
light: DIQMTQSPSSVSASVGDRVTITCRASQGIYSWLAWYQQKPGKAPNLLIYTASTLQSGVPSRFSGSGSGTDFTLTISSLQPEDFATYYCQQANIFPLTFGGGTKVEIKRTVAAPSVFIFPPSDEQLKSGTASVVCLLNNFYPREAKVQWKVDNALQSGNSQESVTEQDSKDSTYSLSSTLTLSKADYEKHKVYACEVTHQGLSSPVTKSFNRGEC
modifications: ATAC11 on reduced cysteines; sites not stated (heavy or light chain); ATAC11 (maleimide-PEG4 linker with immune-stimulatory compound) on reduced cysteines; sites not stated (heavy or light chain); DAR 4.5
B2: SBT-040-WT-ATAC3 (antibody, human IgG1, kappa)
heavy: not shown
light: DIQMTQSPSSVSASVGDRVTITCRASQGIYSWLAWYQQKPGKAPNLLIYTASTLQSGVPSRFSGSGSGTDFTLTISSLQPEDFATYYCQQANIFPLTFGGGTKVEIKRTVAAPSVFIFPPSDEQLKSGTASVVCLLNNFYPREAKVQWKVDNALQSGNSQESVTEQDSKDSTYSLSSTLTLSKADYEKHKVYACEVTHQGLSSPVTKSFNRGEC
modifications: ATAC3 on lysines; sites not stated (heavy or light chain); ATAC3 (PEG linker with activated ester and immune-stimulatory compound) on lysines; sites not stated (heavy or light chain); DAR 5.4
notes: also called SBT-040-G1-ATAC3
B3: SBT-040-G2-ATAC11 (antibody, human IgG2, kappa)
heavy: not shown
light: DIQMTQSPSSVSASVGDRVTITCRASQGIYSWLAWYQQKPGKAPNLLIYTASTLQSGVPSRFSGSGSGTDFTLTISSLQPEDFATYYCQQANIFPLTFGGGTKVEIKRTVAAPSVFIFPPSDEQLKSGTASVVCLLNNFYPREAKVQWKVDNALQSGNSQESVTEQDSKDSTYSLSSTLTLSKADYEKHKVYACEVTHQGLSSPVTKSFNRGEC
modifications: ATAC11 on reduced cysteines; sites not stated (heavy or light chain); ATAC11 (maleimide-PEG4 linker with immune-stimulatory compound) on reduced cysteines; sites not stated (heavy or light chain); DAR 4.0
B4: SBT-040-WT-ATAC22 (antibody, human IgG1, kappa)
heavy: not shown
light: DIQMTQSPSSVSASVGDRVTITCRASQGIYSWLAWYQQKPGKAPNLLIYTASTLQSGVPSRFSGSGSGTDFTLTISSLQPEDFATYYCQQANIFPLTFGGGTKVEIKRTVAAPSVFIFPPSDEQLKSGTASVVCLLNNFYPREAKVQWKVDNALQSGNSQESVTEQDSKDSTYSLSSTLTLSKADYEKHKVYACEVTHQGLSSPVTKSFNRGEC
modifications: ATAC22 on reduced cysteines; sites not stated (heavy or light chain); ATAC22 (maleimidocaproyl-Val-Ala-PAB linker with immune-stimulatory compound) on reduced cysteines; sites not stated (heavy or light chain); DAR 4.6
B5: SBT-040-G2-ATAC3 (antibody, human IgG2, kappa)
heavy: not shown
light: DIQMTQSPSSVSASVGDRVTITCRASQGIYSWLAWYQQKPGKAPNLLIYTASTLQSGVPSRFSGSGSGTDFTLTISSLQPEDFATYYCQQANIFPLTFGGGTKVEIKRTVAAPSVFIFPPSDEQLKSGTASVVCLLNNFYPREAKVQWKVDNALQSGNSQESVTEQDSKDSTYSLSSTLTLSKADYEKHKVYACEVTHQGLSSPVTKSFNRGEC
modifications: ATAC3 on lysines; sites not stated (heavy or light chain); ATAC3 (PEG linker with activated ester and immune-stimulatory compound) on lysines; sites not stated (heavy or light chain); DAR 3.3
B6: SBT-040-G2-ATAC4 (antibody, human IgG2, kappa)
heavy: not shown
light: DIQMTQSPSSVSASVGDRVTITCRASQGIYSWLAWYQQKPGKAPNLLIYTASTLQSGVPSRFSGSGSGTDFTLTISSLQPEDFATYYCQQANIFPLTFGGGTKVEIKRTVAAPSVFIFPPSDEQLKSGTASVVCLLNNFYPREAKVQWKVDNALQSGNSQESVTEQDSKDSTYSLSSTLTLSKADYEKHKVYACEVTHQGLSSPVTKSFNRGEC
modifications: ATAC4 on lysines; sites not stated (heavy or light chain); ATAC4 (PEG linker with activated ester and immune-stimulatory compound) on lysines; sites not stated (heavy or light chain); DAR 2.9
B7: SBT-040-G2 (antibody, human IgG2, kappa)
heavy: not shown
light: DIQMTQSPSSVSASVGDRVTITCRASQGIYSWLAWYQQKPGKAPNLLIYTASTLQSGVPSRFSGSGSGTDFTLTISSLQPEDFATYYCQQANIFPLTFGGGTKVEIKRTVAAPSVFIFPPSDEQLKSGTASVVCLLNNFYPREAKVQWKVDNALQSGNSQESVTEQDSKDSTYSLSSTLTLSKADYEKHKVYACEVTHQGLSSPVTKSFNRGEC
notes: also called SBT-040-G2WT
B8: SBT-040-G2-ATAC22 (antibody, human IgG2, kappa)
heavy: not shown
light: DIQMTQSPSSVSASVGDRVTITCRASQGIYSWLAWYQQKPGKAPNLLIYTASTLQSGVPSRFSGSGSGTDFTLTISSLQPEDFATYYCQQANIFPLTFGGGTKVEIKRTVAAPSVFIFPPSDEQLKSGTASVVCLLNNFYPREAKVQWKVDNALQSGNSQESVTEQDSKDSTYSLSSTLTLSKADYEKHKVYACEVTHQGLSSPVTKSFNRGEC
modifications: ATAC22 on reduced cysteines; sites not stated (heavy or light chain); ATAC22 (maleimidocaproyl-Val-Ala-PAB linker with immune-stimulatory compound) on reduced cysteines; sites not stated (heavy or light chain); DAR 4.1
B9: SBT-040-WT antibody (antibody, human IgG1, kappa)
heavy: not shown
light: DIQMTQSPSSVSASVGDRVTITCRASQGIYSWLAWYQQKPGKAPNLLIYTASTLQSGVPSRFSGSGSGTDFTLTISSLQPEDFATYYCQQANIFPLTFGGGTKVEIKRTVAAPSVFIFPPSDEQLKSGTASVVCLLNNFYPREAKVQWKVDNALQSGNSQESVTEQDSKDSTYSLSSTLTLSKADYEKHKVYACEVTHQGLSSPVTKSFNRGEC
notes: also called SBT-040-G1
B10: SBT-040-WT-ATAC4 (antibody, human IgG1, kappa)
heavy: not shown
light: DIQMTQSPSSVSASVGDRVTITCRASQGIYSWLAWYQQKPGKAPNLLIYTASTLQSGVPSRFSGSGSGTDFTLTISSLQPEDFATYYCQQANIFPLTFGGGTKVEIKRTVAAPSVFIFPPSDEQLKSGTASVVCLLNNFYPREAKVQWKVDNALQSGNSQESVTEQDSKDSTYSLSSTLTLSKADYEKHKVYACEVTHQGLSSPVTKSFNRGEC
modifications: ATAC4 on lysines; sites not stated (heavy or light chain); ATAC4 (PEG linker with activated ester and immune-stimulatory compound) on lysines; sites not stated (heavy or light chain); DAR 4.6
notes: also called SBT-040-G1-ATAC4
B11: SBT-040-AAA-ATAC22 (antibody, human IgG1, kappa)
heavy: not shown
light: DIQMTQSPSSVSASVGDRVTITCRASQGIYSWLAWYQQKPGKAPNLLIYTASTLQSGVPSRFSGSGSGTDFTLTISSLQPEDFATYYCQQANIFPLTFGGGTKVEIKRTVAAPSVFIFPPSDEQLKSGTASVVCLLNNFYPREAKVQWKVDNALQSGNSQESVTEQDSKDSTYSLSSTLTLSKADYEKHKVYACEVTHQGLSSPVTKSFNRGEC
modifications: ATAC22 on reduced cysteines; sites not stated (heavy or light chain); ATAC22 (maleimidocaproyl-Val-Ala-PAB linker with immune-stimulatory compound) on reduced cysteines; sites not stated (heavy or light chain); DAR 4.1
B12: SBT-040-VLPLL-ATAC11 (antibody, human IgG1, kappa)
heavy: not shown
light: DIQMTQSPSSVSASVGDRVTITCRASQGIYSWLAWYQQKPGKAPNLLIYTASTLQSGVPSRFSGSGSGTDFTLTISSLQPEDFATYYCQQANIFPLTFGGGTKVEIKRTVAAPSVFIFPPSDEQLKSGTASVVCLLNNFYPREAKVQWKVDNALQSGNSQESVTEQDSKDSTYSLSSTLTLSKADYEKHKVYACEVTHQGLSSPVTKSFNRGEC
modifications: ATAC11 on reduced cysteines; sites not stated (heavy or light chain); ATAC11 (maleimide-PEG4 linker with immune-stimulatory compound) on reduced cysteines; sites not stated (heavy or light chain); DAR 2.9
B13: SBT-040-AAA-ATAC11 (antibody, human IgG1, kappa)
heavy: not shown
light: DIQMTQSPSSVSASVGDRVTITCRASQGIYSWLAWYQQKPGKAPNLLIYTASTLQSGVPSRFSGSGSGTDFTLTISSLQPEDFATYYCQQANIFPLTFGGGTKVEIKRTVAAPSVFIFPPSDEQLKSGTASVVCLLNNFYPREAKVQWKVDNALQSGNSQESVTEQDSKDSTYSLSSTLTLSKADYEKHKVYACEVTHQGLSSPVTKSFNRGEC
modifications: ATAC11 on reduced cysteines; sites not stated (heavy or light chain); ATAC11 (maleimide-PEG4 linker with immune-stimulatory compound) on reduced cysteines; sites not stated (heavy or light chain); DAR 2.9
B14: SBT-040-VLPLL-ATAC22 (antibody, human IgG1, kappa)
heavy: not shown
light: DIQMTQSPSSVSASVGDRVTITCRASQGIYSWLAWYQQKPGKAPNLLIYTASTLQSGVPSRFSGSGSGTDFTLTISSLQPEDFATYYCQQANIFPLTFGGGTKVEIKRTVAAPSVFIFPPSDEQLKSGTASVVCLLNNFYPREAKVQWKVDNALQSGNSQESVTEQDSKDSTYSLSSTLTLSKADYEKHKVYACEVTHQGLSSPVTKSFNRGEC
modifications: ATAC22 on reduced cysteines; sites not stated (heavy or light chain); ATAC22 (maleimidocaproyl-Val-Ala-PAB linker with immune-stimulatory compound) on reduced cysteines; sites not stated (heavy or light chain); DAR 3.9

What was measured:
Rhesus CD40 ECD monomer = target: T1, Rhesus CD40 ECD monomer (rhesus, UniProt F6SNI1 21-193); assay: BLI (Octet Red 96), antibody on anti-human Fc sensor, monomeric CD40 ECD as analyte, 1:1 fit
T1 construct: Recombinant monomeric CD40 ECD used as analyte; also called monomeric rhesus CD40
Method: (§1) Analysis of CD40 ECD interaction was performed using Octet Red 96 instrument (ForteBio). The Octet systems use propriety BLI to analyze biomolecular interaction. […] The experiments were comprised of 5 steps: (1) baseline acquisition (60 s); (2) antibodies and antibody immune-stimulatory compound conjugates loading onto anti-human Fc biosensor (120 s); (3) second baseline acquisition (60 s); (4) association of interacting monomeric CD40 ECD protein for kₒₙ measurement (120 s); (5) Dissociation of interacting monomeric CD40 ECD for koff measurement (360 s). The interacting monomeric CD40 ECD were used at 5-6 concentrations of 3-fold concentration series. Data were analyzed using Octet Data Analysis Sofware 9.0 (ForteBio) and fitted to the 1:1 binding model. Equilibrium dissociation constants (KD) were calculated by the […].

human FcγRIIIB = target: T2, human FcγRIIIB (human, UniProt O75015 17-200); assay: BLI (Octet Red 96), FcγR on anti-his tag sensor, antibody as analyte, avidity fit
T2 construct: also called CD16b
Method: For human FcγRIIB/C, FcγRIIIA F158, FcγRIIIA V158 and FcγRIIIB interaction studies, the proteins were immobilized on anti-his tag biosensors and incubated with varying concentration of unconjugated anti-CD40 antibodies or anti-CD40 antibody immune-stimulatory compound conjugates ranging from 0.04 μM to 8 μM. […] The experiment comprised of 5 steps: (1) baseline acquisition (60 s); (2) anti-CD40 antibodies or anti-CD40 antibody immune-stimulatory compound conjugates loading onto […] (120 s); (3) second baseline acquisition (60 s); (4) association of interacting protein for kₒₙ measurement (120 s); (5) dissociation of interacting FcγR for koff measurement (300 s). The interacting anti-CD40 antibodies or anti-CD40 antibody immune-stimulatory compound conjugates were used at 4 concentrations of 2 fold concentration series. Data were analyzed using Octet Data Analysis Software 9.0 (ForteBio) and fitted to the avidity binding model. Equilibrium dissociation constants (KD) were calculated by the […].

Human CD40 ECD monomer = target: T3, Human CD40 ECD monomer (human, UniProt P25942 21-193); assay: BLI (Octet Red 96), antibody on anti-human Fc sensor, monomeric CD40 ECD as analyte, 1:1 fit
T3 construct: extracellular domain; Recombinant monomeric CD40 ECD used as analyte; also called monomeric human CD40; CD40 Extracellular Domain (ECD)
Method: as §1

human FcγRI = target: T4, human FcγRI (human, UniProt P12314 16-288, limits assumed); assay: BLI (Octet Red 96), antibody on anti-human Fc sensor, monomeric FcγR as analyte
T4 construct: Monomeric FcγR used as analyte in solution; also called CD64
Method: Human FcγR interaction analysis was also performed using Octet Red 96 instrument. […] The experiments were comprised of 5 steps: (1) baseline acquisition (60 s); (2) anti-CD40 antibodies or anti-CD40 antibody immune-stimulatory compound conjugates loading onto anti-human Fc biosensor (120 s); (3) second baseline acquisition (60 s); (4) association of interacting protein for kₒₙ measurement (120 s); (5) dissociation of interacting FcγR for koff measurement (300 s). The interacting monomeric FcγR were used at 5-6 concentrations of 3-fold concentration series. Data were analyzed using Octet Data Analysis Software 9.0 (ForteBio) and fitted to the 1:1 binding model. Equilibrium dissociation constants (KD) were calculated by the […].

T1 sequence (F6SNI1 entry or part of it limits assumed): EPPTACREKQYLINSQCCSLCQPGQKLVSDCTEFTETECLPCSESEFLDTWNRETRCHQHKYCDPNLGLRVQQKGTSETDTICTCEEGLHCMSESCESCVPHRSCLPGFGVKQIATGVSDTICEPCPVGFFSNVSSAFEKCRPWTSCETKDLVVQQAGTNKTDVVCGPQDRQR
T3 sequence (P25942 21-193): as the sequence (F6SNI1 entry or part of it limits assumed) above, with S43G, R56H, L89W, M92T, S95A, P101L, L106S, R142H, Q172L counted along it
T4 sequence (P12314 16-288 limits assumed): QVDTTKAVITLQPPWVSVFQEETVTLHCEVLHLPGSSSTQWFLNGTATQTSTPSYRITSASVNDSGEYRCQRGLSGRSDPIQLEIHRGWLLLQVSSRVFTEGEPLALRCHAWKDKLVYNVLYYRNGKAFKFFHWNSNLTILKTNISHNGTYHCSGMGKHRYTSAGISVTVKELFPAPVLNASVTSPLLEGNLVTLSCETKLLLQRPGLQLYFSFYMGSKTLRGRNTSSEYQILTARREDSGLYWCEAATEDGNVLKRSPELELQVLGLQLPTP
T2 sequence (O75015 17-200 limits assumed): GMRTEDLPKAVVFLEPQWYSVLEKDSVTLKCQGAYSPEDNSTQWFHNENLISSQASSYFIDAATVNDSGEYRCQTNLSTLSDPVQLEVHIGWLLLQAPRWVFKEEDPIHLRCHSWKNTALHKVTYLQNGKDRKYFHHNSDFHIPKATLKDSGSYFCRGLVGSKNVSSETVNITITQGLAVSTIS

Binder	Kd (Rhesus CD40 ECD monomer)	Kd (human FcγRIIIB)	Kd (Human CD40 ECD monomer)	binding result (human FcγRI)
B1	13.5 nM	5000 nM		
B2	13.1 nM	1500 nM	9 nM	
B3	14 nM		7.4 nM	no binding (tested: 1.2 nM to 1 µM FcγR)
B4	13.6 nM	2710 nM	8 nM	
B5	11.5 nM	3930 nM	7.3 nM	no binding (tested: 1.2 nM to 1 µM FcγR)
B6	13.6 nM		8.7 nM	no binding (tested: 1.2 nM to 1 µM FcγR)
B7	12.4 nM		7.7 nM	no binding (tested: 1.2 nM to 1 µM FcγR)
B8	15.2 nM		7.2 nM	no binding (tested: 1.2 nM to 1 µM FcγR)
B9	14 nM	3600 nM		
B10	12.9 nM	3240 nM	9.3 nM	
B11			5 nM	
B12			7.6 nM	
B13		3830 nM		
B14			7.5 nM	
